Test results published in patent US20100203083A1.

Columns and labels:
[1] = target: purified αVβ3 integrin (CHEMICON) (UniProt P06756)
[2] = target: AAV-amyloid-453-587 (AAV-2; human) (UniProt P03135)

| Substance | fold increase of binding activity against RGD4C 453 [1] [fold] | fold higher affinity against the I-587-insertion mutant (AAV-amyloid-587) [2] [fold] |
| --- | --- | --- |
| AAV2 RGD4C 453 A2 (from UniProt P03135 1-453; P03135 454-735) (other; other documents disagree on this pair) | 50 | – |
| anti-β-amyloid mAb 6E10 (CHEMICON) (antibody) | – | > 2 |
